By EC50 is commonly meant the concentration giving half of the maximal effect. The term Kd denotes the constant that tells how readily two partners part at equilibrium. Higher therefore signals a looser complex.

The record followed here is patent US20160264663A1 (published 2016).

The target of assay [1] is T1, human podocalyxin (human).
T1 chain: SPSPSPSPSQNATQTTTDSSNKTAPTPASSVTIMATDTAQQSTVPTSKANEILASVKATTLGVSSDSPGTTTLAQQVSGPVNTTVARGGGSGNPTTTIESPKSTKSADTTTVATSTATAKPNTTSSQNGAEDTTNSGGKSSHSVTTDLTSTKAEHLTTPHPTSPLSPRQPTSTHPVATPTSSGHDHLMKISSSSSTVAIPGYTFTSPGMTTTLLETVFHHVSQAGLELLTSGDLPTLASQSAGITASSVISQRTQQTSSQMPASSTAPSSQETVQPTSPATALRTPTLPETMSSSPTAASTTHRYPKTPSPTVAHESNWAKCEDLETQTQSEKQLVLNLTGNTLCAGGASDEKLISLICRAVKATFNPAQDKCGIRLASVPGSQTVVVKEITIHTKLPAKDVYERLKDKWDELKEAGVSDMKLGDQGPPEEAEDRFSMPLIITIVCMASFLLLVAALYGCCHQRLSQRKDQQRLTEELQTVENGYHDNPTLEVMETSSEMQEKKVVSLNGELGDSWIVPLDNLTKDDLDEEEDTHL
Briefly: flow cytometry, isotype control, OVCAR3 cells. For orientation: In flow cytometry, cells or beads pass a laser one at a time.

Assay [2] has as its target T1, human podocalyxin. Nature of the assay: flow cytometry, isotype control, T47-D cells.
In assay [3] the target is T1, human podocalyxin. Briefly: flow cytometry, isotype control, 293 HEK cells.
Assay [4] concerns the target T1, human podocalyxin. Briefly: flow cytometry, isotype control, CaOV3 cells.
For assay [5], the target named is T1, human podocalyxin. Briefly: flow cytometry, isotype control, SKOV3 cells.
Assay [6] deals with T1, human podocalyxin. Nature of the assay: flow cytometry, isotype control, HUVEC cells.
Assay [7] addresses T1, human podocalyxin. Briefly: flow cytometry, isotype control, OVCAR10 cells.
Assay [8] deals with T1, human podocalyxin. Briefly: flow cytometry, isotype control, A172 cells.
Assay [9] addresses T1, human podocalyxin. Briefly: flow cytometry, isotype control, MCF7 cells.
Assay [10] has as its target T1, human podocalyxin. Nature of the assay: flow cytometry, isotype control, MDA-MB-231 cells.
The target of assay [11] is T1, human podocalyxin. Briefly: flow cytometry, control, 1:125, hPodo/MDA-MB-231 transient transfectants.
In assay [12] the target is T1, human podocalyxin. Nature of the assay: flow cytometry, control, neat, MDA-MB-231 cells.
In assay [13] the target is T1, human podocalyxin. Briefly: flow cytometry, control, neat, hPodo/MDA-MB-231 transient transfectants.
The target in assay [14] is T1, human podocalyxin. Nature of the assay: flow cytometry, control, 1:125, MDA-MB-231 cells.
Assay [15] concerns the target T1, human podocalyxin. Briefly: flow cytometry, control, 2:15 (so in the source), hPodo/MDA-MB-231 transient transfectants.
Assay [16] addresses T1, human podocalyxin. Nature of the assay: flow cytometry, control, 1:5, MDA-MB-231 cells.
The target of assay [17] is T1, human podocalyxin. Briefly: flow cytometry, control, 2:15 (so in the source), MDA-MB-231 cells.
The target of assay [18] is T1, human podocalyxin. Briefly: flow cytometry, control, 1:5, hPodo/MDA-MB-231 transient transfectants.
Assay [19] addresses human podocalyxin (human). Briefly: flow cytometry, MDA-MB-231 cells.
The target of assay [20] is human podocalyxin (human). Nature of the assay: flow cytometry titration on 293-6E cells (endogenous podocalyxin), 24 hours at 4 C.
In assay [21] the target is human podocalyxin (human). Nature of the assay: flow cytometry, supernatant neat, MDA-MB-231 cells.
Assay [22] has as its target human podocalyxin (human). Nature of the assay: flow cytometry, 5 ug/mL antibody, A172 cells.
In assay [23] the target is human podocalyxin (human). Briefly: FACS, hPodo/MDA cells (MDA-MB-231 transfected with human podocalyxin cDNA).
Assay [24] addresses human podocalyxin (human). Nature of the assay: flow cytometry, supernatant 1:125, hPodo/MDA-MB-231 transient transfectants.
The target of assay [25] is human podocalyxin (human). Nature of the assay: flow cytometry, HUVEC cells.
Assay [26] concerns the target human podocalyxin (human). Nature of the assay: flow cytometry, 5 ug/mL antibody, T47-D cells.
The target in assay [27] is human podocalyxin (human). Nature of the assay: flow cytometry, OVCAR3 cells.
Assay [28] addresses human podocalyxin (human). Briefly: flow cytometry, 5 ug/mL antibody, HUVEC cells.
In assay [29] the target is human podocalyxin (human). Nature of the assay: flow cytometry, supernatant 2:15 (so in the source), hPodo/MDA-MB-231 transient transfectants.
Assay [30] concerns the target human podocalyxin (human). Nature of the assay: flow cytometry titration on 293-6E cells (endogenous podocalyxin), 48 hours at 4 C.
In assay [31] the target is human podocalyxin (human). Briefly: flow cytometry, supernatant 1:5, hPodo/MDA-MB-231 transient transfectants.
The target in assay [32] is human podocalyxin (human). Briefly: flow cytometry, OVCAR10 cells.
The target in assay [33] is human podocalyxin (human). Briefly: flow cytometry, MCF7 cells.
Assay [34] deals with human podocalyxin (human). Nature of the assay: flow cytometry, CaOV3 cells.
Assay [35] deals with human podocalyxin (human). Nature of the assay: kinetic exclusion assay (KinExA 3200), A172 cells. (In general: Kinetic exclusion samples the free partner from a solution-phase mixture.)
The target of assay [36] is human podocalyxin (human). Nature of the assay: flow cytometry, 5 ug/mL antibody, 293 cells.
Assay [37] addresses human podocalyxin (human). Briefly: flow cytometry, supernatant 2:15 (so in the source), MDA-MB-231 cells.
The target of assay [38] is human podocalyxin (human). Briefly: flow cytometry, supernatant 1:5, MDA-MB-231 cells.
For assay [39], the target named is human podocalyxin (human). Nature of the assay: FACS on MDA-MB-231 cells; biotinylated antibody 5 ug/mL, no competitor (FACS Buffer row).
Assay [40] concerns the target human podocalyxin (human). Nature of the assay: flow cytometry, 293 HEK cells.
Assay [41] concerns the target human podocalyxin (human). Briefly: flow cytometry, supernatant 1:125, MDA-MB-231 cells.
Assay [42] addresses human podocalyxin (human). Briefly: flow cytometry, T47-D cells.
The target in assay [43] is human podocalyxin (human). Nature of the assay: flow cytometry, 5 ug/mL antibody, MCF7 cells.
Assay [44] addresses human podocalyxin (human). Nature of the assay: flow cytometry, 5 ug/mL antibody, OVCAR3 cells.
Assay [45] addresses human podocalyxin (human). Nature of the assay: flow cytometry, A172 cells.
In assay [46] the target is human podocalyxin (human). Briefly: flow cytometry, 5 ug/mL antibody, CaOV3 cells.
Assay [47] addresses human podocalyxin (human). Nature of the assay: flow cytometry, supernatant neat, hPodo/MDA-MB-231 transient transfectants.
For assay [48], the target named is human podocalyxin (human). Nature of the assay: flow cytometry, 5 ug/mL antibody, MDA-MB-231 cells.
Assay [49] has as its target human podocalyxin (human). Nature of the assay: flow cytometry, 5 ug/mL antibody, OVCAR10 cells.
Assay [50] deals with human podocalyxin (human). Briefly: flow cytometry, SKOV3 cells.
Assay [51] has as its target human podocalyxin (human). Nature of the assay: kinetic exclusion assay (KinExA 3200), MDA-MB-231 cells.

As for MsIgG2a (antibody), the Live cell GeoMean FL (geometric mean fluorescence units) in assay [1] was determined as 708; in [2], 787; in assay [3], 556; in assay [4], 892; in assay [5] it was 485; in assay [6], 484. Also, the Live cell GeoMean FL (geometric mean fluorescence units) in [7] came out at 618; in [8], 797; in assay [9], 1130; in assay [10], 478.

Rb IgG (antibody): the FACS signal (name not given) in assay [11] came out at 645; in assay [12], 574; in assay [13], 762; in assay [14], 431; in assay [15], 617; in assay [16], 467. In addition, the FACS signal (name not given) worked out at 438 in [17] and 660 in assay [18].

B1: Rb/Hu Podo83 (Podo83 rabbit VH and VL, human IgG1 chimera) (antibody, V domains shown)
VH: CQSLAESGGRLVTPGTPLTLTCTASGIDLSSYAMGWVRQAPGKGLEYIGFIYASGSIFYASWAKGRFTISKTSSTTVDLKMTSLTTEDTATYFCARAGYYFGGNYDLNLWGQGTLVTVSS
VL: DIVLTQTPASVEVAVGGTVTIKCQASQSISNYLAWYQRKPGQPPRLLIYRASTLASGVSSRFKGSGSGTQFTLTISGVECADAATYYCQQGYVSNNLDNIFGGGTEVVVK
modifications: human IgG1/kappa constant regions
For B1, the Live cell GeoMean FL (geometric mean fluorescence units) in assay [19] was 88900; in [22] it was 170000; in assay [25], 24500; in assay [26], 1500; in [27] it was 28600; in assay [28], 44600. The Live cell GeoMean FL (geometric mean fluorescence units) came out at 1530 in assay [32]; 28400 in assay [33]; 23400 in assay [34]; 28200 in assay [36]; 28200 in [40]; 1130 in [42]. The Live cell GeoMean FL (geometric mean fluorescence units) was 60800 in assay [43]; 16500 in [44]; 224000 in assay [45]; 48800 in [46]; 91900 in [48]; 2820 in assay [49]. The Live cell GeoMean FL (geometric mean fluorescence units) in [50] came out at 59800. In assay [20], the EC50 stood at 0.0295 µg/mL. Further, the FACS signal (name not given) was 143000 in [21]; 178000 in assay [23]; 58500 in assay [24]; 155000 in assay [29]; 99300 in [31]; 102000 in assay [37]. Moreover, the FACS signal (name not given) turned out to be 121000 in assay [38], 139000 in assay [39], 50600 in assay [41] and 79000 in [47]. For the same molecule, the EC50 (half-maximal binding) in assay [30] was 0.0305 µg/mL. Moreover, the figures for the Kd in [35] and in [51] were 0.103 nM and 0.0456 nM, respectively.
